doi:10.1101/2025.05.04.652084

Legend:
[1] = molecular target: taxol-stabilized porcine brain GDP-microtubules (porcine) (UniProt P02550)
[2] = molecular target: taxol-stabilized porcine brain GDP-microtubules (porcine) (UniProt P02550); remark: listed apart in the source

Chain of UniProt P02550 (P02550 46-451): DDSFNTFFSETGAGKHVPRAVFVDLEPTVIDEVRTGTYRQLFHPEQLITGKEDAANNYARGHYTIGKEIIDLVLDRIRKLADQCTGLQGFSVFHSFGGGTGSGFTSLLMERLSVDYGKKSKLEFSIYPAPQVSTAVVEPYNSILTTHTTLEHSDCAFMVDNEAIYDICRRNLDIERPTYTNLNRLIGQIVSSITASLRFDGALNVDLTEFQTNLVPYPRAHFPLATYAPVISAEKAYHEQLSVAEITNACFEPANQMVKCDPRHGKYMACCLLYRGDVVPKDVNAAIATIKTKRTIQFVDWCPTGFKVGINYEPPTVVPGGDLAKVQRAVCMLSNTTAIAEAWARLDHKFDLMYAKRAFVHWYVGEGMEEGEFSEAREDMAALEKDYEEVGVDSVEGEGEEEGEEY

For “MmKIF5A (from UniProt P33175 1-1027) (enzyme)”, the K (1/2,MT) of the microtubule-stimulated ATPase activity [1] was 2.2 µM and the microtubule detachment rate under load [2] was 1.3 s⁻¹.

GcKIF5A (enzyme) was tested, and the K (1/2,MT) of the microtubule-stimulated ATPase activity [1] was 4.2 µM and the microtubule detachment rate under load [2] was 3.9 s⁻¹.
